Experimental data published in article doi:10.1101/2022.04.08.487687, “In Silico Improvement of Highly Protective Anti-Malarial Antibodies” (bioRxiv, 2022).
No end group written: not given here.

Biological target: T1, peptide 21 (PfCSP residues 101-115), biotinylated (Plasmodium falciparum 3D7, UniProt Q7K740, also: biotin, position not given here)
T1 construct: Biotinylated probe used in AlphaLISA and BLI; also called Pep21; P21
T1 chain: NPDPNANPNVDPNAN
Assay: BLI; Octet Red384; biotinylated Pep21 immobilised on streptavidin biosensors; Fab serially diluted from 1000 to 62.5 nM; 30°C; PBS + 1% BSA; global fit, 1:1 Langmuir model
Conditions: both partners purified

B1: P3-43 Fab (m43.151 variant P100KH) (Fab, V domains shown)
VH: QVHLVQSGAEVKKPGASVKVSCKASGYTFTSYAIHWVRQAPGQRLEWMGWIKGGNGNTRYSQKFQDRVTITRDTSASTAYMELSSLRSEDTAVYYCALLTVITKDDAFDIWGQGTMVTVSS
VL: not shown
notes: as the heavy chain of m5 (m43.151) with the stated change; as the light chain of m5 (m43.151), no change stated; Best m43.151-based variant; source: Fab produced from the antibody
B1 gave a Kd of 8.9 ± 0.5 nM.
